Measured values published in patent US20230129258A1, “HETEROTANDEM BICYCLIC PEPTIDE COMPLEXES” (BicycleTx Limited, priority 2019, published 2023).
Starred links: 1 amine or outer side, 2 acyl side, 3 side chain; linkers in the order of their positions; H or OH if unused. Positions of bridges follow the written chain, without caps; N, C: chain ends. Non-standard residues stand in square brackets, D forms with d. Primed or numbered codes have the meaning given here. Chains are numbered I, II in the order given. No end group written: not given here. *: point of attachment. PYA″ = 4-pentynoic acid, acylating the D-Lys side chain, alkyne clicked to the linker azide; PYA(3) = 4-pentynoic acid, on D-Lys NZ, clicked (triazole) to the linker azide; TATA = O=C(CC[*:1])N1CN(C(=O)CC[*:2])CN(C(=O)CC[*:3])C1; Ala(4-thiazolyl) = N[C@@H](Cc1cscn1)C(=O)O; γGlu = O=C(O)[C@H](CCC(=O)[*:2])N[*:1]; His(τ-Me) = Cn1cnc(C[C@H](N)C(=O)O)c1; Palmitoyl = CCCCCCCCCCCCCCCC(=O)*; Hyp = O=C(O)[C@@H]1C[C@@H](O)CN1; hArg = N=C(N)NCCCC[C@H](N)C(=O)O; tBuAla = CC(C)(C)C[C@H](N)C(=O)O; Cysteamide = C(CS[*:3])N[*:1]; dK(PYA) = not defined here; Nle = CCCC[C@H](N)C(=O)O; Pent4ynoyl = C#CCCC(=O)*; Mpa = O=C(O)CCS

Molecular target: CD137 (Homo sapiens, UniProt Q07011)
Assay: CD137 reporter assay (Promega, Jurkat cells) in co-culture with EphA2-expressing tumor cells (A549, PC3, HT29)
Type: cell-based
Parameters: host or cells: Jurkat reporter cells
Conditions: co-culture with PC3; for Fold Improvement over Emax: versus BCY9173
Protocol: Culture medium, referred to as R1 media, is prepared by adding 1% FBS to RPMI-1640 (component of Promega kit CS196005). Serial dilutions of test articles in R1 are prepared in a sterile 96 well-plate. Add 25 μL per well of test articles or R1 (as a background control) to designated wells in a white cell culture plate. Tumor cells* are harvested and resuspended at a concentration of 400,000 cells/mL in R1 media. Twenty five (25) μL/well of tumor cells are added to the white cell culture plate. Jurkat cells (Promega kit CS196005, 0.5 mL) are thawed in the water bath and then added to 5 ml pre-warmed R1 media. Twenty five (25) μL/well of Jurkat cells are then added to the white cell culture plate. Incubate the cells and test articles for 6 h at 37° C., 5% CO2. At the end of 6 h, add 75 μL/well Bio-Glo™ reagent (Promega) and incubate for 10 min before reading luminescence in a plate reader (Clariostar, BMG). The fold change relative to cells alone (Jurkat cells+Cell line used in co-culture) is calculated and plotted in GraphPad Prism as log(agonist) vs response to determine EC50 (nM) and Fold Induction over background (Max).
The tumor cell types used in co-culture for EphA2 are A549, PC3 and HT29. The tumor cell type used in co-culture for PD-L1 is RKO.

Chain of CD137 (Q07011 24-255): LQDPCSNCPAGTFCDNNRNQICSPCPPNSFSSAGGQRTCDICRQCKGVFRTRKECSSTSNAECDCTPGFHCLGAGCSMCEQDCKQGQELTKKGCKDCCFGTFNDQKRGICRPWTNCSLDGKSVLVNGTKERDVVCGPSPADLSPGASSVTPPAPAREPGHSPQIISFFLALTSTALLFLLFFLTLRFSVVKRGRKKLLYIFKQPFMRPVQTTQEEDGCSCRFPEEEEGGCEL

With “BCY12725: EphA2:CD137 1:2; BCY9594 + 2x BCY12147; linker N-(acid-PEG3)-N-bis(PEG3-azide) (peptide 1 A[hArg]DC[Hyp]LVNPLCLHP[dD]W[hArg]C; peptide 2 Ac-C[tBuAla]PE[dK](PYA(3))PYCFANPY[Nle]C; linker I:4-I:11-I:18, II:1-II:8-II:15 via TATA; not fully specified (N-terminus, bridges); also: chain 2 present twice on linker, EphA2:CD137 1:2)” the “Fold Improvement over BCY9173, EC50 (nM)” value was 0.1 fold and the “Fold Improvement over Emax” value was 0.7 fold.

“BCY12726: EphA2:CD137 1:2; BCY9594 + 2x BCY12145; linker N-(acid-PEG3)-N-bis(PEG3-azide) (peptide 1 A[hArg]DC[Hyp]LVNPLCLHP[dD]W[hArg]C; peptide 2 Ac-C[tBuAla]PE[dK(PYA)]PYCFAEPY[Nle]C; linker I:4-I:11-I:18 via TATA (inferred); linker II:1-II:8-II:15 via TATA; linker II:N-II:5 via N‑(acid-PEG3)‑N‑bis(PEG3-azide); not fully specified (N-terminus); reading uncertain; also: chain 2 twice (1:2 complex))” was tested, and the “Fold Improvement over BCY9173, EC50 (nM)” value was 0.2 fold and the “Fold Improvement over Emax” value was 0.9 fold.

With “BCY12729: EphA2:CD137 1:2; BCY9594 + 2x BCY12352; linker N-(acid-PEG3)-N-bis(PEG3-azide) (peptide 1 A[hArg]DC[Hyp]LVNPLCLHP[dD]W[hArg]C; peptide 2 Ac-C[tBuAla]PE[dK(PYA)]PYCFADPY[Nle][Cysteamide]; linker I:4-I:11-I:18 via TATA (inferred); linker II:1-II:8-II:15 via TATA; linker II:N-II:5 via N‑(acid-PEG3)‑N‑bis(PEG3-azide); not fully specified (N-terminus); reading uncertain; also: chain 2 twice (1:2 complex))” the “Fold Improvement over BCY9173, EC50 (nM)” value was 0.5 fold and the “Fold Improvement over Emax” value was 1.6 fold.

For “BCY12731: EphA2:CD137 1:2; BCY9594 + 2x BCY12354; linker N-(acid-PEG3)-N-bis(PEG3-azide) (peptide 1 A[hArg]DC[Hyp]LVNPLCLHP[dD]W[hArg]C; peptide 2 [Mpa][tBuAla]PE[dK(PYA)]PYCFADPY[Nle][Cysteamide]; linker I:4-I:11-I:18 via TATA (inferred); linker II:1-II:8-II:15 via TATA; not fully specified (N-terminus); reading uncertain; also: chain 2 twice (1:2 complex), linker at chain B 5 to a chain's N-terminus via N-(acid-PEG3)-N-bis(PEG3-azide))”, the “Fold Improvement over BCY9173, EC50 (nM)” value was 0.2 fold and the “Fold Improvement over Emax” value was 1.5 fold.

For “BCY12732: EphA2:CD137 1:2; BCY9594 + 2x BCY12360; linker N-(acid-PEG3)-N-bis(PEG3-azide) (peptide 1 A[hArg]DC[Hyp]LVNPLCLHP[dD]W[hArg]C; peptide 2 {Palmitoyl-γGlu-γGlu}-C[tBuAla]PE[dK(PYA)]PYCFADPY[Nle]C; linker I:4-I:11-I:18 via TATA (inferred); linker II:1-II:8-II:15 via TATA; not fully specified (N-terminus); reading uncertain; also: chain 2 twice (1:2 complex), linker at chain B 5 to a chain's N-terminus via N-(acid-PEG3)-N-bis(PEG3-azide))”, the “Fold Improvement over BCY9173, EC50 (nM)” value was 0.5 fold and the “Fold Improvement over Emax” value was 0.4 fold.

For “BCY13279: EphA2:CD137 1:2; BCY13125 (C-term dLys) + 2x BCY8928; linker N-(acid-PEG3)-N-bis(PEG3-azide) (peptide 1 Ac-C[Hyp]LVNPLCLHP[dD]W[hArg]CL[dH]G[dK]; peptide 2 Ac-C[tBuAla]PE[dK](Pent4ynoyl)PYCFADPY[Nle]CA; linker I:1-I:8-I:15 via TATA; linker II:1-II:8-II:15 via TATA (inferred); not fully specified (bridges); also: linker N-(acid-PEG3)-N-bis(PEG3-azide) on C-terminal dK of chain 1, joins two chain 2 copies (2x BCY8928) via PYA triazoles)”, the “Fold Improvement over BCY9173, EC50 (nM)” value was 4.74 fold and the “Fold Improvement over Emax” value was 2.08 fold.

For “BCY14050: EphA2:CD137 1:2; BCY13918 + 2x BCY8928; linker N-(acid-PEG3)-N-bis(PEG3-azide) (peptide 1 A[hArg]DC[Hyp]LVNPLCL[His(τ-Me)]P[dD]W[hArg]C; peptide 2 Ac-C[tBuAla]PE[dK](PYA″)PYCFADPY[Nle]CA; linker I:4-I:11-I:18, II:1-II:8-II:15 via TATA (inferred); not fully specified (N-terminus, bridges); also: 2x chain 2 (2x BCY8928) on linker)”, the “Fold Improvement over BCY9173, EC50 (nM)” value was 2.05 fold and the “Fold Improvement over Emax” value was 1.91 fold.

“BCY14051: EphA2:CD137 1:2; BCY13919 + 2x BCY8928; linker N-(acid-PEG3)-N-bis(PEG3-azide) (peptide 1 A[hArg]DC[Hyp]LVNPLCL[Ala(4-thiazolyl)]P[dD]W[hArg]C; peptide 2 Ac-C[tBuAla]PE[dK](PYA″)PYCFADPY[Nle]CA; linker I:4-I:11-I:18, II:1-II:8-II:15 via TATA (inferred); not fully specified (N-terminus, bridges); also: 2x chain 2 (2x BCY8928) on linker)” was tested, and the “Fold Improvement over BCY9173, EC50 (nM)” value was 3.15 fold and the “Fold Improvement over Emax” value was 1.88 fold.

“BCY14052: EphA2:CD137 1:2; BCY13920 + 2x BCY8928; linker N-(acid-PEG3)-N-bis(PEG3-azide) (peptide 1 A[hArg]DC[Hyp]LVNPLCLFP[dD]W[hArg]C; peptide 2 Ac-C[tBuAla]PE[dK](PYA″)PYCFADPY[Nle]CA; linker I:4-I:11-I:18 via TATA; linker II:1-II:8-II:15 via TATA (inferred); not fully specified (N-terminus, bridges); also: 2x chain 2 (2x BCY8928) on linker)” was tested, and the “Fold Improvement over BCY9173, EC50 (nM)” value was 4.16 fold and the “Fold Improvement over Emax” value was 1.89 fold.

With “BCY14334: EphA2:CD137 1:2; BCY14313 + 2x BCY8928; linker N-(acid-PEG3)-N-bis(PEG3-azide) (peptide 1 A[hArg]DC[Hyp]LVNPLCLKP[dD]W[hArg]C; peptide 2 Ac-C[tBuAla]PE[dK](Pent4ynoyl)PYCFADPY[Nle]CA; linker I:4-I:11-I:18, II:1-II:8-II:15 via TATA (inferred); not fully specified (some residues, N-terminus); also: 1:2 complex: chain 1 N-terminus joined to dLys(PYA)5 of two chain 2 copies via N-(acid-PEG3)-N-bis(PEG3-azide) linker)” the “Fold Improvement over BCY9173, EC50 (nM)” value was 7.21 fold and the “Fold Improvement over Emax” value was 1.62 fold.
